Data as given in patent US20230287131A1 (ORIONIS BIOSCIENCES, published 2023).

T1: soluble hTNF-R2 (Peprotech) (human, UniProt P20333 23-257)
T1 construct: extracellular domain; also called p75
T1 sequence (looked up): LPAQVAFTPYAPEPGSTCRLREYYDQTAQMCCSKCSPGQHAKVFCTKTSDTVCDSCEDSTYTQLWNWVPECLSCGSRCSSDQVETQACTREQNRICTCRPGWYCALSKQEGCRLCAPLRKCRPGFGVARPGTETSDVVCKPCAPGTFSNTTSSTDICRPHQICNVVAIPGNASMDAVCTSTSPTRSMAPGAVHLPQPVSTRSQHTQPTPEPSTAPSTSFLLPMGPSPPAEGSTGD

T2: soluble hTNF-R1 (Peprotech) (human, UniProt P19438 30-211)
T2 construct: extracellular domain; also called p55
T2 sequence (looked up): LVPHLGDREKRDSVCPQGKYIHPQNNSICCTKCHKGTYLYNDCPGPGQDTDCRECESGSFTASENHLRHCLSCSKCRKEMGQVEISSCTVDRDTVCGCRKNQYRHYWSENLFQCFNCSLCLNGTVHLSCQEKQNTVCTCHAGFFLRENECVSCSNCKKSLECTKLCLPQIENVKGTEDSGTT


Tests used:
[1] = target: hTNF-R2 on Raji cells or PC60-hTNFR2 cells (human) (UniProt P20333); test: cell-based or functional assay
[2] = target: T1, soluble hTNF-R2 (Peprotech); test: BLI (Octet RED96), His-tagged TNF on HIS1K biosensor, soluble receptor in solution, 1:1 global fit
Method: (§1) KD values were calculated using global fitting with a 1:1 model (R²≥0.95).

[3] = target: T2, soluble hTNF-R1 (Peprotech); test: as above
Method: as §1

[4] = target: T2, soluble hTNF-R1 (Peprotech); test: BLI (Octet RED96), affinity relative to WT hTNF
Method: as §1

OPRM1 mRNA expression in Raji cells (qPCR), against unstimulated cells [1]	Kd [2]	Kd [3]	% WT R1 [4]	Molecule
5 fold	–	–	–	BclI10 Nanobody (control) - 20xGGS - hTNF Y87H/A145R - 6xHis AcTakine
–	4.78 nM	5100 nM	0.35%	hTNF mutant A145T E146D S147D (N-terminal 6xHis tag) (ligand) HHHHHHVRSSSRTPSDKPVAHVVANPQAEGQLQWLNRRANALLANGVELRDNQLVVPSEGLYLIYSQVLFKGQGCPSTHVLLTHTISRIAVSYQTKVNLLSAIKSPCQRETPEGAEAKPWYEPIYLGGVFQLEKGDRLSAEINRPDYLDFTDDGQVYFGIIAL
